Experimental data as given in publication doi:10.1101/2020.06.24.169185 (bioRxiv, 2020).

B1: GFP-Sox2 (natural protein)
chain: not shown
B2: GFP-Nanog (natural protein, UniProt Q80Z64 1-305, looked up)
chain: MSVGLPGPHSLPSSEEASNSGNASSMPAVFHPENYSCLQGSATEMLCTEAASPRPSSEDLPLQGSPDSSTSPKQKLSSPEADKGPEEEENKVLARKQKMRTVFSQAQLCALKDRFQKQKYLSLQQMQELSSILNLSYKQVKTWFQNQRMKCKRWQKNQWLKTSNGLIQKGSAPVEYPSIHCSYPQGYLVNASGSLSMWGSQTWTNPTWSSQTWTNPTWNNQTWTNPTWSSQAWTAQSWNGQPWNAAPLHNFGEDFLQPYVQLQQNFSASDLEVNLEATRESHAHFSTPQALELFLNYSVTPPGEI
B3: mCherry-Nanog (natural protein, UniProt Q80Z64 1-305, looked up)
chain: B2 chain

Columns and labels:
mCherry-Nanog = target: B3; assay: fluorescence cross-correlation spectroscopy
[1] = target: the molecule itself; assay: fluorescence correlation spectroscopy
[2] = target: the molecule itself; assay: fluorescence correlation spectroscopy; remark: listed apart in the source
[3] = target: the molecule itself; assay: fluorescence correlation spectroscopy; remark: listed apart in the source

Row | complex % (mCherry-Nanog) [%] | Binder | stoichiometry N [1] | GFP-Nanog/GFP brightness ratio [2] | mCherry-Nanog/mCherry brightness ratio [3]
1 | 26.1 | B1 | – | – | –
2 | 19.8 | B2 | 2 | ~1.5 | –
3 | – | B3 | – | – | ~2
